This is an account of results in US20110104194A1 (NEW YORK UNIVERSITY, published 2011).

Test [1] addresses Thrombospondin (human platelet) (human, UniProt P07996 19-1170). Put plainly: western blot overlay: rPTRP on the blot, ECM protein 5 µg/ml, anti-ECM antibody. A general note: Immunoblotting shows a protein as a band on a membrane.
For test [2], the target named is vitronectin (human plasma) (human, UniProt P04004 20-478). Put plainly: western blot overlay of rPTRP with ECM protein; same result by ELISA.
Test [3] addresses T1, collagen IV (human placenta) (human, UniProt P02462 28-1669; P08572 26-1712).
T1 construct: Chemicon; also called Col IV
Described as above.

Test [4] concerns the target T2, elastin (human lung) (human, UniProt P15502 27-786).
T2 sequence: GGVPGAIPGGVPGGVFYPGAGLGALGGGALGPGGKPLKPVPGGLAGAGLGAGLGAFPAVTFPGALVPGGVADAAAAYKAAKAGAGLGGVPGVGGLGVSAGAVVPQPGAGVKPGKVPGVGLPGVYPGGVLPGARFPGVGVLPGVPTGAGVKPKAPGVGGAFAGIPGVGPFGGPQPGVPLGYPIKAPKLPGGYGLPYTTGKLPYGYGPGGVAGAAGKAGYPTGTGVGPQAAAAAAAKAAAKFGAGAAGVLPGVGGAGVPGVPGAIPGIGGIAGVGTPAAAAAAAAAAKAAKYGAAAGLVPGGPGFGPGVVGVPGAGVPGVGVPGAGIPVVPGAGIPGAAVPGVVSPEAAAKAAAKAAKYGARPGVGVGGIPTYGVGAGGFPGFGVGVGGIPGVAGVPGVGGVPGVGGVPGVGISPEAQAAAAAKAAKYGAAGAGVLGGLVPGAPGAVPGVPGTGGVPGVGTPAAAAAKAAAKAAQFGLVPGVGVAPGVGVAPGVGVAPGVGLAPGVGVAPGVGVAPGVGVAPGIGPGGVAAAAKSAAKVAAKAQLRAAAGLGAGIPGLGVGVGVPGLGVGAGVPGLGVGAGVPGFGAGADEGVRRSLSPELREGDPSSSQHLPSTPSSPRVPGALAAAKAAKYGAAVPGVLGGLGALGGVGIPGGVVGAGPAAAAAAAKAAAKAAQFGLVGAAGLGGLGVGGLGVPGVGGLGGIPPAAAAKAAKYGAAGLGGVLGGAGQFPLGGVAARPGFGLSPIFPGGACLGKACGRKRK
Described as above.

The target in test [5] is T3, human collagen I (human, UniProt P02452 162-1218; P08123 80-1119).
T3 construct: Chemicon; also called Col I
The test is described as above.

Test [6] addresses T4, collagen III (human placenta) (human, UniProt P02461 154-1221).
T4 construct: Chemicon; also called Col III
T4 sequence: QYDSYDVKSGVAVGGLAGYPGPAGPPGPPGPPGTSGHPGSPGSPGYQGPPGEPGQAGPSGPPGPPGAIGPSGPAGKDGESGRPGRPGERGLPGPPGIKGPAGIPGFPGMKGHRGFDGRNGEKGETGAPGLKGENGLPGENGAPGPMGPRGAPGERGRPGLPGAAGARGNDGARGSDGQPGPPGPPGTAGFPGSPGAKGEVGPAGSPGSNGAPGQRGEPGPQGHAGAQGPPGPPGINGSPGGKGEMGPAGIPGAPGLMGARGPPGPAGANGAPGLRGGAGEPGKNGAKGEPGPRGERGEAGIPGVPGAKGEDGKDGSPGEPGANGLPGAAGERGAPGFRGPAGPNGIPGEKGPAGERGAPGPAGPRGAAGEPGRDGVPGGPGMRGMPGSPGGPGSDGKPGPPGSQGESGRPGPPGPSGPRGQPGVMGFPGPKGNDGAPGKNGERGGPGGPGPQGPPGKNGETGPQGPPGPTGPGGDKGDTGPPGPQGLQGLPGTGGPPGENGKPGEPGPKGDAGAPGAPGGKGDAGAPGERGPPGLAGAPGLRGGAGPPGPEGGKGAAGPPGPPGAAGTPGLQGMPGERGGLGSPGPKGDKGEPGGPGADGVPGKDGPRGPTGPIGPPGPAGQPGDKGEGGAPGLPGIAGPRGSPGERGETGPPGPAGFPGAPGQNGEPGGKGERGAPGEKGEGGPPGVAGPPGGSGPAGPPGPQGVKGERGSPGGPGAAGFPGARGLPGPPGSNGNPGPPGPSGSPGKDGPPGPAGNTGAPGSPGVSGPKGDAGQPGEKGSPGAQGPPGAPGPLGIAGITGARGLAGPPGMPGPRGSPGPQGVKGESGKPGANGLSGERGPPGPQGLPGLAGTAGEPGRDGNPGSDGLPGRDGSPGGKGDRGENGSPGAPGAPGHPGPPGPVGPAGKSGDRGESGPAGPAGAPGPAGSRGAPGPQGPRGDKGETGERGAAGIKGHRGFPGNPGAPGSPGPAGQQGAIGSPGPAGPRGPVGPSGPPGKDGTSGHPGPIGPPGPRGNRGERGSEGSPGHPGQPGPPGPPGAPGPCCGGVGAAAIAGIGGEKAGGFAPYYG
The description is as above.

The target of test [7] is T5, fibrinogen (human plasma) (human, UniProt P02671 20-629; P02675 31-491; P02679 27-437).
T5 sequence 1: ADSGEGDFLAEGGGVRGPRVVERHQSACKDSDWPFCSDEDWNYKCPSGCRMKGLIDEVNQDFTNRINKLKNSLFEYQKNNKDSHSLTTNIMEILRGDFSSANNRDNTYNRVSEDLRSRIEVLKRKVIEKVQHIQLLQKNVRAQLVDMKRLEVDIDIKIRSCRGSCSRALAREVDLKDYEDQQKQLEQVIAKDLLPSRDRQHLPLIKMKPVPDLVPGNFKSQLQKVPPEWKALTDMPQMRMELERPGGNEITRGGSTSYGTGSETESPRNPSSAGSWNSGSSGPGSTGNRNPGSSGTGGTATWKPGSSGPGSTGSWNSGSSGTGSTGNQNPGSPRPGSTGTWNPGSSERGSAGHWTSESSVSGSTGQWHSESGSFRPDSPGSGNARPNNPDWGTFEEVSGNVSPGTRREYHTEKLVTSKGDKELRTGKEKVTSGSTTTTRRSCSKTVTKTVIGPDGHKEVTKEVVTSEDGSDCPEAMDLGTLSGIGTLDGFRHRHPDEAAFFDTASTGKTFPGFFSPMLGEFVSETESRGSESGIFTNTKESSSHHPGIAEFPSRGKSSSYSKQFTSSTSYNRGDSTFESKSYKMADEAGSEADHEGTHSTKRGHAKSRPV
T5 sequence 2: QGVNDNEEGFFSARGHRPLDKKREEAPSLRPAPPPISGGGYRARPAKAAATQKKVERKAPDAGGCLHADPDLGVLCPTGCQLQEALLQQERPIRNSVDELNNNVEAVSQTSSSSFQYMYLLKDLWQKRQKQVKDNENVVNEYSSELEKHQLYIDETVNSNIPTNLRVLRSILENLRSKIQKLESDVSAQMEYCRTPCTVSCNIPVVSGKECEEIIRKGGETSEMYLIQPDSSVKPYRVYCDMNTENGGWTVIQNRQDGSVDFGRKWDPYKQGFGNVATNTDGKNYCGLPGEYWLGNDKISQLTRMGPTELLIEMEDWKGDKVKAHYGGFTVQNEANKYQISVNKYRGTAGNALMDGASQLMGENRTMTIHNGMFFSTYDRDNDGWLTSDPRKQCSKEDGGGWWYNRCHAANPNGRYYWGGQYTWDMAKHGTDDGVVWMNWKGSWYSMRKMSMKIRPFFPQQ
T5 sequence 3: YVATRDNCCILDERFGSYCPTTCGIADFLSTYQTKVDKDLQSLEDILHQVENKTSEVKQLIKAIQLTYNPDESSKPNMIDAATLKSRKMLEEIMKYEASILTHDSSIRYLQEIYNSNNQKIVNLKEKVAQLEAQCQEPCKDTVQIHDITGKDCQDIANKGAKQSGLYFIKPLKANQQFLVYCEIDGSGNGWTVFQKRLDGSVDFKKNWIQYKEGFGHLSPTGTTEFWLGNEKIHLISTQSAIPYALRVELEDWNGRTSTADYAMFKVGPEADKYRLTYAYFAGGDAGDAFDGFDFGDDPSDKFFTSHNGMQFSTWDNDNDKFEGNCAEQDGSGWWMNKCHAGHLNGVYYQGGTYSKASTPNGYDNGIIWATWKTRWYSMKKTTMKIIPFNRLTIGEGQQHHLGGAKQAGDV
The test is described as above.

For test [8], the target named is T6, collagen II (human cartilage) (human, UniProt P02458 182-1241).
T6 construct: Chemicon; also called Col II
The description is as above.

T1 sequence (P02462 28-1669, chain 1 of 2): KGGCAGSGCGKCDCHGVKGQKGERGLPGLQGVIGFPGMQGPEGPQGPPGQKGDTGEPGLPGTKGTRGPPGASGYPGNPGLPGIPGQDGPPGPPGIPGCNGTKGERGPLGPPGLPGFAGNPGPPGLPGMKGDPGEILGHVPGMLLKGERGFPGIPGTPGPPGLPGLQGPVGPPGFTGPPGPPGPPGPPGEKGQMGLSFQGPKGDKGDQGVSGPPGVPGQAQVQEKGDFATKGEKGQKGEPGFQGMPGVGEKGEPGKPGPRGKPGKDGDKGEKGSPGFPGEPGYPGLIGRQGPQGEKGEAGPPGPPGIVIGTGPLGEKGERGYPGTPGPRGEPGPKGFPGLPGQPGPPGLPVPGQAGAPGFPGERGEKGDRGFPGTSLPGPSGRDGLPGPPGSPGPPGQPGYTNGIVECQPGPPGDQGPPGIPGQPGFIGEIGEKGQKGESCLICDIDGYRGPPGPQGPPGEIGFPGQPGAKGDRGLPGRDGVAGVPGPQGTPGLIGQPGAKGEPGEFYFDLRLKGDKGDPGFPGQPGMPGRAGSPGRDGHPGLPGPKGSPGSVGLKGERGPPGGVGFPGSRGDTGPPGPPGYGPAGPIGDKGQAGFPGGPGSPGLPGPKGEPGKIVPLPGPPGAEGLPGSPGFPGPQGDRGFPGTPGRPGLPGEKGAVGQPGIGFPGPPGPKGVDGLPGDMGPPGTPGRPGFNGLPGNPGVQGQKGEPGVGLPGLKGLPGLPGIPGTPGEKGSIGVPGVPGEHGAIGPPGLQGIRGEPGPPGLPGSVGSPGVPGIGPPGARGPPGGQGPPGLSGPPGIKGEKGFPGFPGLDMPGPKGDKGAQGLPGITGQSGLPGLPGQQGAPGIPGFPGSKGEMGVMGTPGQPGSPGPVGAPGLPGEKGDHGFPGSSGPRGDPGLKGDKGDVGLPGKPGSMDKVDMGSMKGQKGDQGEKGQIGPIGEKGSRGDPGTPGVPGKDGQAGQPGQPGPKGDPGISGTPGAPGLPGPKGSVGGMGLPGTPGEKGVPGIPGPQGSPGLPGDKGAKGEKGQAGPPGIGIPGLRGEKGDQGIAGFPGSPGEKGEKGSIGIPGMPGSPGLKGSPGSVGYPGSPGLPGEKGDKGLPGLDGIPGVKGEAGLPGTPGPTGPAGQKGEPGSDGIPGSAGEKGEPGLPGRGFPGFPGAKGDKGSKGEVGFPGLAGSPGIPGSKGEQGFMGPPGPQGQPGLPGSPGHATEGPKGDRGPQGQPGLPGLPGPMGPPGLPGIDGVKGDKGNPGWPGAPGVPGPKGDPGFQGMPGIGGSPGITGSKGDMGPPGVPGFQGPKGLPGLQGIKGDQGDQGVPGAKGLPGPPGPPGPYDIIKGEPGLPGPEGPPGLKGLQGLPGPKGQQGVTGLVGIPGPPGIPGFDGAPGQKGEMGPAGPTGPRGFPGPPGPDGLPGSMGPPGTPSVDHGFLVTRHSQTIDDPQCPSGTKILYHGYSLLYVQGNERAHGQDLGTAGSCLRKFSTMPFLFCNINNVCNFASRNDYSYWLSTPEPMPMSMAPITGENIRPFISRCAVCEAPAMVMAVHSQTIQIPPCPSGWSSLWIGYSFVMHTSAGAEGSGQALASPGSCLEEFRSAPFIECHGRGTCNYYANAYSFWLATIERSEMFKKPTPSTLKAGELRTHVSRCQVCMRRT
T1 sequence (P08572 26-1712, chain 2 of 2): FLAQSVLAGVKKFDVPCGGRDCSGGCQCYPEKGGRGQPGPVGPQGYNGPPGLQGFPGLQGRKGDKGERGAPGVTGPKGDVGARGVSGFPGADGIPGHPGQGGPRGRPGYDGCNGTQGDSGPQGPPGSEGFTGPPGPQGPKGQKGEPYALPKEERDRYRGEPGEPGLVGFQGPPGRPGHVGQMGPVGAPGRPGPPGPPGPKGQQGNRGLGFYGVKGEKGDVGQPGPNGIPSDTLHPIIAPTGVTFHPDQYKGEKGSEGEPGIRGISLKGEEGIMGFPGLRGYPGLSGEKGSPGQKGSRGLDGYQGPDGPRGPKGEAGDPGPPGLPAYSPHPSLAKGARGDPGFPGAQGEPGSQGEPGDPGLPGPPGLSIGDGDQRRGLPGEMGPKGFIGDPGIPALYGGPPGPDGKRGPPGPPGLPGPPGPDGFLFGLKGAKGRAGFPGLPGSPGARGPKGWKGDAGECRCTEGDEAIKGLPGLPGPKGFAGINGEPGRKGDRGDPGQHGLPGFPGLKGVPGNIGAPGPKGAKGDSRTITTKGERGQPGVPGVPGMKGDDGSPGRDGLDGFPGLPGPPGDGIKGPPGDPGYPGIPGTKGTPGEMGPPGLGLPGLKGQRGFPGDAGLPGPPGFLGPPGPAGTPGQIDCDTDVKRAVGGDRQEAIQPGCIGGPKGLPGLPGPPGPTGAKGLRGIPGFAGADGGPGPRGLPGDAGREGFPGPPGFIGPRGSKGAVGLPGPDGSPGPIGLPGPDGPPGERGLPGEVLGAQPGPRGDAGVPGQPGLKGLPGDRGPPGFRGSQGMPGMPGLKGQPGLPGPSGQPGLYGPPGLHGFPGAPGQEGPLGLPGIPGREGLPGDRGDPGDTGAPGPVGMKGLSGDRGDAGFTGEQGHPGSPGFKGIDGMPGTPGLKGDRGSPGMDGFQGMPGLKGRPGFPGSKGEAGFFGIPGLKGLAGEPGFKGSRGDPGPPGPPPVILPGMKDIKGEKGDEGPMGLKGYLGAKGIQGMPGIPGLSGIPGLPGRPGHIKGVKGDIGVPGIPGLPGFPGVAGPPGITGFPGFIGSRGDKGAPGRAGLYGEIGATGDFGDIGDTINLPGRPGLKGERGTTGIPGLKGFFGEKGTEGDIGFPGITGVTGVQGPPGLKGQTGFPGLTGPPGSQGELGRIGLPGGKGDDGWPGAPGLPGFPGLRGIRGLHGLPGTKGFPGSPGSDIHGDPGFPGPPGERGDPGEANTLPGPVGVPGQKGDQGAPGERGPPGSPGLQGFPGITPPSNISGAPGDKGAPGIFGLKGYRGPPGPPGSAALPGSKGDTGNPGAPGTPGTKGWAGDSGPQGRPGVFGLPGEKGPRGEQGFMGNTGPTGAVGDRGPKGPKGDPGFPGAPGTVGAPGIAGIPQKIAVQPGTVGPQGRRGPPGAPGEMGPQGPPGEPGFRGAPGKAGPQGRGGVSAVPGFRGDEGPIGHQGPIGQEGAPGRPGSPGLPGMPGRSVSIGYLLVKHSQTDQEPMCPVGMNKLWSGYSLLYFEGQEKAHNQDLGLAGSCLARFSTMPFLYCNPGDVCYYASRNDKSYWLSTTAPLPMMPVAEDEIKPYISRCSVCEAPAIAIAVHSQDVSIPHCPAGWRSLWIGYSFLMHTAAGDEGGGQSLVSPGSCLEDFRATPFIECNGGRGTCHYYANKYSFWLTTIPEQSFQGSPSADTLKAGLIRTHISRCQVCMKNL
T6 sequence (P02458 182-1241 limits assumed): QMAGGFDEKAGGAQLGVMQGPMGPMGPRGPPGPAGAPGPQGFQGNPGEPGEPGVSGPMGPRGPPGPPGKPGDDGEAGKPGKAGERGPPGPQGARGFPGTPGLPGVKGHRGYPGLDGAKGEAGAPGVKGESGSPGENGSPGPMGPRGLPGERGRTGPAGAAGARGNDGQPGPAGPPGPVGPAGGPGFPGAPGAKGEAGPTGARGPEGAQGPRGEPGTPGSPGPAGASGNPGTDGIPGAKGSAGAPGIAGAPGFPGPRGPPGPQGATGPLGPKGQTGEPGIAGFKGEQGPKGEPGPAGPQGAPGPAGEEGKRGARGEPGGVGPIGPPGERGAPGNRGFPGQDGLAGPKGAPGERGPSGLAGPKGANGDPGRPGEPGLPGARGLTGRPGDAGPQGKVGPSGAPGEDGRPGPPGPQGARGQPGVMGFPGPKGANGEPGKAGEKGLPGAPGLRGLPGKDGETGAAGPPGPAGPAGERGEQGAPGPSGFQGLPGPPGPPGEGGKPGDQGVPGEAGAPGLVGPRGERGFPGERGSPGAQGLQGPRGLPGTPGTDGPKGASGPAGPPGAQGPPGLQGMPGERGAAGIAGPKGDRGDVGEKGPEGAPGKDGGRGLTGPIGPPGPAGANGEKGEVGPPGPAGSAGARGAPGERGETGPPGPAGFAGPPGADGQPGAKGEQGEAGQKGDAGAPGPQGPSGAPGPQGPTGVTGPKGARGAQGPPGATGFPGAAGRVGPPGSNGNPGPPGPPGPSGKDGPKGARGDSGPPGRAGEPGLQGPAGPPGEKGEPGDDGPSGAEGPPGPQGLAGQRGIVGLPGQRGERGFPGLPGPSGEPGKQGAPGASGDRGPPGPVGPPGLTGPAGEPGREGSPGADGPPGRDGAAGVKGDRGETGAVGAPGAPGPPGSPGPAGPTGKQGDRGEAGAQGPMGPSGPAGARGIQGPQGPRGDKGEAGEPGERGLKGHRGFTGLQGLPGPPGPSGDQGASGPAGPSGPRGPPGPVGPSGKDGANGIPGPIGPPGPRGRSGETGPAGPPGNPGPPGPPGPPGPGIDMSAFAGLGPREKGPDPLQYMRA
Chain of vitronectin (human plasma) (P04004 20-478 limits assumed): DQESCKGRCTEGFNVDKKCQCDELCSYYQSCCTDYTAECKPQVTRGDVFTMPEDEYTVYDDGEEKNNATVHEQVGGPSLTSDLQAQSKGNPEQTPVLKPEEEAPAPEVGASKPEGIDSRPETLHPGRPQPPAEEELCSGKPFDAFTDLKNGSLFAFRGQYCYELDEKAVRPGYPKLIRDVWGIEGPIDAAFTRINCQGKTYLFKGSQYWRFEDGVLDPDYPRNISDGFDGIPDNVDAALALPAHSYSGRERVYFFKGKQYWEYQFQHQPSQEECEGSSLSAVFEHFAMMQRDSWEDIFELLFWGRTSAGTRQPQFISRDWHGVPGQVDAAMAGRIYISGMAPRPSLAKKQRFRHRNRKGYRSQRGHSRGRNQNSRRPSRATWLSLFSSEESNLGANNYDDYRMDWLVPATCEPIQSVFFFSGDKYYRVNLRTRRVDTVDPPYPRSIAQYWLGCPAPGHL

B1: purified recombinant PTRP (rPTRP), GST tag cleaved (other)
chain: MDVALGVAVTDRVARLALVDSAAPGTVIDQFVLDVAEHPVEVLTETVVGTDRSLAGENHRLVATRLCWPDQAKADELQHALQDSGVHDVAVISEAQAATALVGAAHAGSAVLLVGDETATLSVVGDPDAPPTMVAVAPVAGADATSTVDTLMARLGDQALAPGDVFLVGRSAEHTTVLADQLRAASTMRVQTPDDPTFALARGAAMAAGAATMAHPALVADATTSLPRAEAGQSGSEGEQLAYSQASDYELLPVDEYEEHDEYGAAADRSAPLSRRSLLIGNAVVAFAVIGFASLAVAVAVTIRPTAASKPVEGHQNAQPGKFMPLLPTQQQAPVPPPPPDDPTAGFQGGTIPAVQNVVPRPGTSPGVGGTPASPAPEAPAVPGVVPAPVPIPVPIIIPPFPGWQPGMPTIPTAPPTTPVTTSATTPPTTPPTTPVTTPPTTPPTTPVTTPPTTPPTTPVTTPPTTVAPTTVAPTTVAPTTVAPTTVAPATATPTTVAPQPTQQPTQQPTQQMPTQQQTVAPQTVAPAPQPPSGGRNGSGGGDLFGGF
notes: also called Proline-Threonine Repetitive Protein; Rv0538
As to B1, the binding result was “binds” in test [1]; “no binding (tested: 5 µg/ml)” in test [2]; “no binding (tested: 5 µg/ml)” in test [3]; “no binding (tested: 5 µg/ml)” in test [4]; “no binding (tested: 5 µg/ml)” in test [5]; “no binding (tested: 5 µg/ml)” in test [6]. In addition, the binding result in test [7] and in test [8] was “no binding (tested: 5 µg/ml)” in each case.
